Target: cross-linked CA 4Mu hexamer (HIV-1 (NL4-3 strain))
Assay: SPR; Biacore T100; minimally biotinylated WT CA or CA 4Mu hexamer captured on neutravidin on CM5 chips, CAI injected (100 µM and 3-fold dilutions); 50 mM sodium phosphate pH 7.5, 150 mM NaCl, 0.01% P20; steady-state one-site fit

ITFEDLLDYYGP [CAI peptide]
Kd: > 100 µM
